Values quoted from earlier work as cited in paper PMC6176727.

Experiments:
[1] = biological target: CLV1 ectodomain (Arabidopsis thaliana) (UniProt Q9SYQ8)
[2] = biological target: CLV1 (Arabidopsis thaliana) (UniProt Q9SYQ8)

Kd [1]: 1 nM
Kd [2]: 280 nM
Substance: CLV3p (13-amino-acid) (from UniProt Q9XF04)
